From patent US20130108641A1 (Sanofi, published 2013) come the findings set out here.

Test [1] has as its target T1, human GITR expressed on cells (human, UniProt Q9Y5U5 26-241).
T1 construct: whole, on cells; Used for HEK293 transfectants and for PHA-stimulated human PBMCs; also called hGITR; cell surface hGITR
T1 sequence (looked up): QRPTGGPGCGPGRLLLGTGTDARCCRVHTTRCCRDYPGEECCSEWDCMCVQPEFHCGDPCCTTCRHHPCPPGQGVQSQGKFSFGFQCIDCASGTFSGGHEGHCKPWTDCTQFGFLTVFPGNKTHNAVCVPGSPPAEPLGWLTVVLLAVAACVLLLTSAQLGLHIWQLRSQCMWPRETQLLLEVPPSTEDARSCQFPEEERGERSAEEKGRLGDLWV
Kind of test: FACS (Guava) on HEK293-Trex-hGITR cells, Alexa 647 anti-human IgG-Fc detection; fitted half-maximal concentration in the legend box, unit from the x axis 'mAb concentrations (µg/mL)'. Here is the method: (§1) Wells were washed 3 times with 200 μl/well of PBS+1% BSA by centrifugation at 350 g for 5 minutes. Then, 100 μL of a 1:400 dilution of Alexa 647-conjugated, anti-human IgG-Fc (Invitrogen) was added to each well. Following incubation at 4° C. for 45 minutes in the dark, the plate was washed with PBS-1% BSA three times. Cells were resuspended in 150 μL of PBS-1% BSA and analyzed using GUAVA instrument.

Test [2] concerns the target T1, human GITR expressed on cells. Kind of test: FACS on HEK293-Trex-hGITR cells, Michaelis binding plot. The procedure:
as §1

Test [3] concerns the target T2, human GITR protein (form not stated) (human, UniProt Q9Y5U5 26-161, limits assumed).
T2 construct: also called hGITR
T2 sequence (looked up): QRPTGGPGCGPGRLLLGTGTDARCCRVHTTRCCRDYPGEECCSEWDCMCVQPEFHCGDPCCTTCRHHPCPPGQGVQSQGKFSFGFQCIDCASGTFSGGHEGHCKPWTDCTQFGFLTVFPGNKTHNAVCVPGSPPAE
Kind of test: ELISA, GITR protein coated. The procedure: Ninety-six well plates were coated with GITR protein at 0.25 μg/well at 4° C., overnight. Wells were washed with washing buffer (PBS pH 7.4+0.05 Tween 20) and blocked with 200 μL of blocking buffer (PBS pH 7.4+0.05% Tween 20+1% BSA) for 1 hour at room temperature. […] The plate was incubated at room temperature for 1 h and washed five times with PBS-T. Then, 100 μL of a 1:50 000 dilution of peroxidase-conjugated goat anti-human IgG-Fc (Sigma)) was added to each well. Following incubation at room temperature for 1 h in the dark, the plate was washed with PBS-T, five times. Antibody binding was visualized by adding 100 μL/well of TMB-H₂O₂ substrate buffer (Interchim) The reaction proceeded at room temperature for 10 min and was read using an ELISA plate reader at a wavelength of 450 nm.

In test [4] the target is T3, human GITR-Fc fusion protein (human, UniProt Q9Y5U5 26-162).
T3 construct: extracellular domain; also called hGITR-Fc; recombinant human GITR-Fc; not shown: Fc part
T3 sequence (looked up): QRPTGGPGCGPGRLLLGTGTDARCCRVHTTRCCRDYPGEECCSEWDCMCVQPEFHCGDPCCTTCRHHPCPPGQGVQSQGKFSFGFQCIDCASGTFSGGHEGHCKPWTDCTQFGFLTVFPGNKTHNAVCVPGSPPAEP
Kind of test: competition ELISA, GITRL coated, GITR 0.25 µg/mL pre-incubated with antibody. Here is the method:
Ninety-six well plates were coated with GITR-Ligand proteins at 0.5 μg/well at 4° C. overnight. Wells were washed with washing buffer (PBS pH 7.4+0.05 Tween 20) and blocked with 200 μL of blocking buffer (PBS pH 7.4+0.05% Tween 20+1% BSA) for 1 hour at room temperature. […] Plates were washed four times with washing buffer and GITR-Ligand-bound recombinant human GITR-Fc was detected with the use of peroxidase-conjugated goat, anti-human IgG-Fc (Sigma), followed by incubation with the TMB substrate (Interchim ref UP664780).

Test [5] has as its target T3, human GITR-Fc fusion protein. Kind of test: SPR (BIAcore 2000), mAb captured on anti-mouse Fc, antigen injected. Here is the method: (§2) The binding kinetics of several anti-GITR antibodies to recombinant human GITR (hGITR) and cynomolgus monkey GITR (cGITR) were determined by surface plasmon resonance assay using a BIAcore 2000 (BIAcore Inc., […].). Briefly, a CM5 BIAcore biosensor chip was docked into the instrument and activated with 250 μL of 1:1 NHS/EDC at room temperature. A rabbit anti-mouse Fc IgG1 mAb (BIAcore #BR-1005-14) (13.5 μg/mL in 0.05M acetate buffer, pH 5) was immobilized on the activated chips in Flow cell 1. The immobilization was carried out at a flow rate of 5 μL/min. The chip was then blocked by injection of 55 μL of ethanolamine-HCl, pH 8.5, followed by five washes with 50 mM NaOH, 1M NaCl. To measure the binding of anti-GITR mabs to the human GITR protein or cyno GITR protein, antibodies were used at 2 μg/mL in BIAcore running buffer (HBS-EP). Antigens (human GITR or cyno GITR) were injected from 3 to 1000 nM. Following completion of the injection phase, dissociation was monitored in a BIAcore running buffer at the same flow rate for 360 sec. The surface was regenerated between injections using 30 μL of 50 mM NaOH-1 M NaCl. Individual sensorgrams were analyzed using […].

Test [6] has as its target T4, cynomolgus monkey GITR-Fc (cynomolgus monkey).
T4 construct: extracellular domain; also called cGITR-FC; cGITR
The test is described as above. The procedure: as §2

The target in test [7] is T1, human GITR expressed on cells. Kind of test: Meso Scale assay, Sulfo-conjugated antibody on coated HEK293-Trex-hGITR cells. The procedure:
The binding kinetics of anti-GITR antibodies to hGITR expressed on the surface of HEK293 cells were determined by Meso Scale assay. HEK293-Trex-hGITR cells (#2404) were coated at 25000 cells/well on a 96-well High Bind plate (MSD L15XB-3) for 2 hours at room temperature. Wells were washed 2 times with 150 μl/well of PBS and blocked with 150 μl/well of blocking solution for 30 min at room temperature. Following two washes with 150 μl/well of PBS, 25 μL/well of Sulfo-conjugated antibodies were added in 2-fold serial dilutions starting at 100 μg/ml up to 12 dilutions in assay diluent and incubated for 45 min at room temperature followed by two washes with PBS. The antibody binding was evaluated by adding 150 μl/well 1× Read buffer T without surfactant and read using the Mesoscale instrument.

For test [8], the target named is T4, cynomolgus monkey GITR-Fc. Kind of test: SPR; KD on cGITR-Fc over KD on hGITR-Fc. The procedure: as §2
For test [9], the target named is T3, human GITR-Fc fusion protein. Kind of test: competition ELISA, GITRL coated, GITR-Fc 0.25 µg/mL pre-incubated with antibody. The procedure:
The ability of anti-GITR antibodies to inhibit the binding of human GITRL to hGITR was assessed using a competition ELISA. Ninety-six well plates were coated with GITR-Ligand protein at 0.5 μg/well at 4° C., overnight. Wells were washed with washing buffer (PBS pH 7.4+0.05 Tween 20) and blocked with 200 μL of blocking buffer (PBS pH 7.4+0.05% Tween 20+1% BSA) for 1 hour at room temperature. Wells were then washed two times with washing buffer and exposed to 100 μL of pre-incubated mixtures of GITR-Fc at 0.25 μg/mL plus anti-GITR antibody in 2-fold serial dilutions starting at 10 μg/ml up to 12 dilutions for 1 hour at room temperature with agitation. Plates were washed four times with washing buffer and GITR-Ligand-bound recombinant human GITR-Fc was detected with the use of peroxidase-conjugated goat anti-human IgG-Fc (Sigma), followed by incubation with the TMB substrate (Interchim)
All antibodies generated using the methods disclosed herein were able to antagonize the binding of GITRL to GITR more potently than the prior art MAB689 antibody.

B1: humanized anti-GITR antibody 2155 variant HC4-LC3 (antibody, V domains shown)
VH: EVQLVESGGGLIQPGGSLKLSCAASGFTISSYAMSWVRQAPGKGLEWVAIISTGGSTYYADSVKGRFTISRDNSKNTLYLQMNSLRAEDTAVYYCARVGGYYDSMDHWGQGTSVT
VL: DIVLTQSPASLAVSPGQRATITCRASETVDNYGISFMNWFQQKPGQPPKLLIYAASNQGSGVPARFSGSGSGTDFTLTINPVEADDTANYYCQQSKEVPWTFGQGTKVE
notes: also called LC3 and HC4
Consider B1, for which the EC50 in [1] was 0.259 µg/mL; in test [3], 1.08 nM. Binding in test [2] was put at a Kd of 4.52 nM. This molecule displayed a 50% inhibitory concentration (IC50) in test [4] of 1.21 nM.

B2: chimeric 2155 antibody (antibody, V domains shown)
VH: EVKLVESGGGLVKPGGSLKLSCGASGFTISSYAMSWVRQSPEKRLEWVAIISTGGSTYYPDSVRGRFTISRDNARNSLYLQMSSLRSEDTAMYYCARVGGYYDSMDHWGQGTSVTVSS
VL: not shown
Turning to B2, the EC50 in test [1] came to 0.337 µg/mL; in test [3], 0.97 nM. Moreover, the dissociation constant (Kd) in [2] amounted to 5.55 nM. The IC50 in test [4] was found to be 1.13 nM.

B3: humanized anti-GITR antibody 2155 variant HC2-LC1 (antibody, V domains shown)
VH: QVTLVESGGGLVKPGGSLTLSCGASGFTISSYAMSWVRQSPGKALEWVAIISTGGSTYYPDSVRGRFTISRDNAKNSLYLTMSSLDSVDTATYYCARVGGYYDSMDHWGQGTSVT
VL: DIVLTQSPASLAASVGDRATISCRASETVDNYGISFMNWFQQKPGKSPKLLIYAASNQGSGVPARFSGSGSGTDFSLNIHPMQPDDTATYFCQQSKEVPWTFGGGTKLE
notes: also called LC1 and HC2
As to B3, the figures for the EC50 in [1] and in [3] were 0.278 µg/mL and 1.34 nM, respectively. Further, the affinity in test [2], expressed as Kd, was 4.68 nM. In test [4], this molecule gave an IC50 of 0.93 nM.

B4: humanized anti-GITR antibody 2155 variant HC3b-LC2a (antibody, V domains shown)
VH: QVTLKESGGGLVKPGGSLTLSCGASGFTISSYAMSWVRQSPGKALEWVAIISTGGSTYYPDKFRGRFTISRDNAKNSLYLTMSSLRSEDTATYYCARVGGYYDSMDHWGQGTSVT
VL: DIVLTQSPASLSASVGDRATISCRASETVDNYGISFMNWFQQKPGQSPKLLIYAASNQGSGVPARFSGSGSGTDFSLTISPMQPDDTATYYCQQSKEVPWTFGGGTKLE
notes: also called LC2a and HC3b
Consider B4, for which the half-maximal effective concentration (EC50) in test [1] was 0.238 µg/mL; in test [3] it was 1.24 nM. In addition, the Kd in [2] was 4.96 nM. The same molecule showed an IC50 in test [4] of 1.15 nM.

B5: humanized anti-GITR antibody 2155 variant HC3a-LC2a (antibody, V domains shown)
VH: QVTLVESGGGLVKPGGSLTLSCGASGFTISSYAMSWVRQSPGKALEWVAIISTGGSTYYPDKFRGRFTISRDNAKNSLYLTMSSLRSEDTATYYCARVGGYYDSMDHWGQGTSVT
VL: DIVLTQSPASLSASVGDRATISCRASETVDNYGISFMNWFQQKPGQSPKLLIYAASNQGSGVPARFSGSGSGTDFSLTISPMQPDDTATYYCQQSKEVPWTFGGGTKLE
notes: also called LC2a and HC3a
In the case of B5, the 50% effective concentration (EC50) is 0.333 µg/mL in [1] and 2.17 nM in test [3]. Besides, in test [2], the Kd amounted to 5.51 nM. In test [4], this molecule returned an IC50 of 1.26 nM.

B6: humanized anti-GITR antibody 2155 variant HC1-LC1 (antibody, V domains shown)
VH: QVTLVESGGGLVKPGGSLTLSCGASGFTISSYAMSWVRQSPGKALEWVAIISTGGSTYYPDSVRGRFTISRDNAKNSLYLTMSSLDSVDTAMYYCARVGGYYDSMDHWGQGTSVT
VL: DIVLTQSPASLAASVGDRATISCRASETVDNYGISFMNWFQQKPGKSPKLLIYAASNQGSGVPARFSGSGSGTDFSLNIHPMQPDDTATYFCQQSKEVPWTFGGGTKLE
notes: also called LC1 and HC1
Take B6: the EC50 in [1] turned out to be 0.206 µg/mL; in test [3], 0.91 nM. In test [2], this molecule showed a Kd of 4.03 nM. In test [4], this molecule yielded an IC50 of 1.08 nM.

B7: anti-GITR antibody clone 706 (antibody, V domains shown)
VH: EVQLQQSGTVLARPGASVKMSCEASGYSFTTYWMHWIKQRPGQGLEWIGAIYPGNSDTGYNQKFKGKAKLTAVTSASTAYMELSSLTNEDSAVYYCTRTSTYPHFDYWGQGTTLTVSS
VL: DILLTQSPAILSVSPGERVSFSCRASQSIGTSIHWYQQRTNGSPRLLIKYASESISGIPSRFSGSGSGTDFTLNINSVESEDIADYYCQQTNNWPLTFGAGTKLELK
notes: Murine hybridoma antibody; also called 706-GITR2; 706 GITR-2
On to B7, for which the Kd in [5] turned out to be 5.95 nM; in test [6], 31.8 nM; in [7], 7.24 nM. For the same molecule, the values for the koff in test [5] and in test [6] were 0.000221 s⁻¹ and 0.000662 s⁻¹, respectively. The “Ratio cKD/hKD” value in test [8] was 5.3. Moreover, in test [9], the IC50 came out at 2.82 nM.

B8: anti-GITR antibody clone 698 (antibody, V domains shown)
VH: EVQLQQSGTVLARPGASVKMSCEASGYSFTTYWMHWIKQRPGQGLEWIGAIYPGNSDTGYNQKFKGKAKLTAVTSATTAYMELSSLTDEDSAVYYCTRTSTYPHFDYWGQGTTLTVSS
VL: DILLTQSPAILSVSPGERVSFSCRASQSIGTSIHWYQQRTNGSPRLLIKYASESISGIPSRFSGSGSGTDFTLNINSVESEDIADYYCQQSNNWPLTFGAGTKLELK
notes: Murine hybridoma antibody; also called 698-GITR2; 698 GITR-2
As to B8, the Kd in [5] is 6.67 nM; in test [6], 36.8 nM; in test [7] it was 6.8 nM. Moreover, the values for the koff in test [5] and in [6] were 0.000224 s⁻¹ and 0.000707 s⁻¹, respectively. Also, the “Ratio cKD/hKD” value in test [8] turned out to be 5.5. Moreover, in test [9], the IC50 worked out at 1.9 nM.
